Data from patent US20140087995A1 (published 2014).
Numbered stars: 1 amine (or outer) side, 2 acyl side, 3 side chain; on linkers, the order of the positions; unused ones are H or OH. Bridge positions count the residues as written; N and C are the ends. Side chains are listed from the residue outwards. Ends that are not written are not given here. * marks the point of attachment. C20 diacid = O=C(O)CCCCCCCCCCCCCCCCCCC(=O)*; γGlu = O=C(O)[C@H](CCC(=O)[*:2])N[*:1]; AEEA = NCCOCCOCC(=O)O

T1: human amylin receptor (amylin 3(a) receptor: human calcitonin receptor plus RAMP-3) (human, UniProt P30988 25-474; O60896 24-148)
T1 construct: whole, on cells; functional assay (II)a used the whole cells; also called hAmylin-R; hAmylinR
T1 sequence (looked up) 1: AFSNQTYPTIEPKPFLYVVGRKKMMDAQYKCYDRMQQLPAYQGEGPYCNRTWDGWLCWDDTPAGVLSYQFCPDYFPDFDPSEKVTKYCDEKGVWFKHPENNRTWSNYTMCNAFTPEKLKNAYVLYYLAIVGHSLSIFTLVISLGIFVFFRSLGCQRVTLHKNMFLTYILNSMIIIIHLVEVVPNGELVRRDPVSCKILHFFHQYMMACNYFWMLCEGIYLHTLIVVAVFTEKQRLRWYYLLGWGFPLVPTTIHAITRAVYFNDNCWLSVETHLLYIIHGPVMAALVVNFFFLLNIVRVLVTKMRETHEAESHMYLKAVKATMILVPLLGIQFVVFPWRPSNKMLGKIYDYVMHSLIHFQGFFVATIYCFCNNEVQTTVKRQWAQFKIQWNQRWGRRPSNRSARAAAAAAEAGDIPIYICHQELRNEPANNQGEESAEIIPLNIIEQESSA
T1 sequence (looked up) 2: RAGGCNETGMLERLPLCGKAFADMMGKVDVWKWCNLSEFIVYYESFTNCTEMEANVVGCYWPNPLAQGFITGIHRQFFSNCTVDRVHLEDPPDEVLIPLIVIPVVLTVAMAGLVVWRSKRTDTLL

T2: human calcitonin receptor (human, UniProt P30988 25-474)
T2 sequence (looked up): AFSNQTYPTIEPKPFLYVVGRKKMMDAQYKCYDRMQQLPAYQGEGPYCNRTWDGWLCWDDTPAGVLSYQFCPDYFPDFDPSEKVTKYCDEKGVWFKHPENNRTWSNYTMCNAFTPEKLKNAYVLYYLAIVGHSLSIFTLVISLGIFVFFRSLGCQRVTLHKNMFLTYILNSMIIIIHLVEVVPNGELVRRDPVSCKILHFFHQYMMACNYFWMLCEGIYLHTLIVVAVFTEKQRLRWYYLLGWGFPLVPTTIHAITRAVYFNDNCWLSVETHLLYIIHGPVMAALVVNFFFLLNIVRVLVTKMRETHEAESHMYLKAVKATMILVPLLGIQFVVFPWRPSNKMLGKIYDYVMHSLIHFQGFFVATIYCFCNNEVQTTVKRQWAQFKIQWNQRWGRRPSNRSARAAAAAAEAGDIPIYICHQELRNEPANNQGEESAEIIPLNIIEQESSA


Experiments:
[1] = biological target: T1, human amylin receptor (amylin 3(a) …); assay: SPA competition binding, displacement of 125I-rat amylin, membranes of BHK amylin 3(a)/CRE-luc cells
Procedure, shortened: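 One-site competition analysis of SPA counts yielded IC₅₀ as a measure of affinity. Membranes were at 35 ng/μL final; incubation was 120 min at 25° C, pH 7.4.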

[2] = biological target: T1, human amylin receptor (amylin 3(a) …); assay: cell-based or functional assay
[3] = biological target: T2, human calcitonin receptor; assay: cell-based or functional assay

Row | Binder | IC50 [1] [nM] | Ratio hCT/hAmylin funct. [2] | hAmylin-R funct. EC50 (pM) [2] [pM] | hCTR funct. EC50 (pM) [3] [pM]
1 | K([AEEA-γGlu-C20 diacid])CNTATCATQRLANFLRHSSPNFGAIPSSTNVGPHTY-NH2 (disulfide 2-7; N-terminus assumed; SMILES CC[C@H](C)[C@H](NC(=O)[C@H](C)NC(=O)CNC(=O)[C@H](Cc1ccccc1)NC(=O)[C@H](CC(N)=O)NC(=O)[C@@H]1CCCN1C(=O)[C@H](CO)NC(=O)[C@H](CO)NC(=O)[C@H](Cc1c[nH]cn1)NC(=O)[C@H](CCCNC(=N)N)NC(=O)[C@H](CC(C)C)NC(=O)[C@H](Cc1ccccc1)NC(=O)[C@H](CC(N)=O)NC(=O)[C@H](C)NC(=O)[C@H](CC(C)C)NC(=O)[C@H](CCCNC(=N)N)NC(=O)[C@H](CCC(N)=O)NC(=O)[C@@H](NC(=O)[C@H](C)NC(=O)[C@@H]1CSSC[C@H](NC(=O)[C@@H](N)CCCCNC(=O)COCCOCCNC(=O)CC[C@H](NC(=O)CCCCCCCCCCCCCCCCCCC(=O)O)C(=O)O)C(=O)N[C@@H](CC(N)=O)C(=O)N[C@@H]([C@@H](C)O)C(=O)N[C@@H](C)C(=O)N[C@@H]([C@@H](C)O)C(=O)N1)[C@@H](C)O)C(=O)N1CCC[C@H]1C(=O)N[C@@H](CO)C(=O)N[C@@H](CO)C(=O)N[C@H](C(=O)N[C@@H](CC(N)=O)C(=O)N[C@H](C(=O)NCC(=O)N1CCC[C@H]1C(=O)N[C@@H](Cc1c[nH]cn1)C(=O)N[C@H](C(=O)N[C@@H](Cc1ccc(O)cc1)C(N)=O)[C@@H](C)O)C(C)C)[C@@H](C)O, also called compound 58) | 0.088 | 21.9 | 47 | 1030
2 | K([γGlu-C20 diacid])CNTATCATQRLANFLRHSSPNFGAIPSSTNVGSHTY-NH2 (disulfide 2-7; N-terminus assumed; SMILES CC[C@H](C)[C@H](NC(=O)[C@H](C)NC(=O)CNC(=O)[C@H](Cc1ccccc1)NC(=O)[C@H](CC(N)=O)NC(=O)[C@@H]1CCCN1C(=O)[C@H](CO)NC(=O)[C@H](CO)NC(=O)[C@H](Cc1c[nH]cn1)NC(=O)[C@H](CCCNC(=N)N)NC(=O)[C@H](CC(C)C)NC(=O)[C@H](Cc1ccccc1)NC(=O)[C@H](CC(N)=O)NC(=O)[C@H](C)NC(=O)[C@H](CC(C)C)NC(=O)[C@H](CCCNC(=N)N)NC(=O)[C@H](CCC(N)=O)NC(=O)[C@@H](NC(=O)[C@H](C)NC(=O)[C@@H]1CSSC[C@H](NC(=O)[C@@H](N)CCCCNC(=O)CC[C@H](NC(=O)CCCCCCCCCCCCCCCCCCC(=O)O)C(=O)O)C(=O)N[C@@H](CC(N)=O)C(=O)N[C@@H]([C@@H](C)O)C(=O)N[C@@H](C)C(=O)N[C@@H]([C@@H](C)O)C(=O)N1)[C@@H](C)O)C(=O)N1CCC[C@H]1C(=O)N[C@@H](CO)C(=O)N[C@@H](CO)C(=O)N[C@H](C(=O)N[C@@H](CC(N)=O)C(=O)N[C@H](C(=O)NCC(=O)N[C@@H](CO)C(=O)N[C@@H](Cc1c[nH]cn1)C(=O)N[C@H](C(=O)N[C@@H](Cc1ccc(O)cc1)C(N)=O)[C@@H](C)O)C(C)C)[C@@H](C)O, also called compound 60) [N^ε1-[(4S)-4-carboxy-4-(19-carboxynonadecanoylamino)butanoyl]-[Arg17,Pro21,Pro27,His35]-h-amylin] | 0.695 | 15.3 | 351 | 5360
3 | K([γGlu-C20 diacid])CNTATCATQRLANFLRHSSPNFGAIPSSTNVGSETY-NH2 (disulfide 2-7; N-terminus assumed; SMILES CC[C@H](C)[C@H](NC(=O)[C@H](C)NC(=O)CNC(=O)[C@H](Cc1ccccc1)NC(=O)[C@H](CC(N)=O)NC(=O)[C@@H]1CCCN1C(=O)[C@H](CO)NC(=O)[C@H](CO)NC(=O)[C@H](Cc1c[nH]cn1)NC(=O)[C@H](CCCNC(=N)N)NC(=O)[C@H](CC(C)C)NC(=O)[C@H](Cc1ccccc1)NC(=O)[C@H](CC(N)=O)NC(=O)[C@H](C)NC(=O)[C@H](CC(C)C)NC(=O)[C@H](CCCNC(=N)N)NC(=O)[C@H](CCC(N)=O)NC(=O)[C@@H](NC(=O)[C@H](C)NC(=O)[C@@H]1CSSC[C@H](NC(=O)[C@@H](N)CCCCNC(=O)CC[C@H](NC(=O)CCCCCCCCCCCCCCCCCCC(=O)O)C(=O)O)C(=O)N[C@@H](CC(N)=O)C(=O)N[C@@H]([C@@H](C)O)C(=O)N[C@@H](C)C(=O)N[C@@H]([C@@H](C)O)C(=O)N1)[C@@H](C)O)C(=O)N1CCC[C@H]1C(=O)N[C@@H](CO)C(=O)N[C@@H](CO)C(=O)N[C@H](C(=O)N[C@@H](CC(N)=O)C(=O)N[C@H](C(=O)NCC(=O)N[C@@H](CO)C(=O)N[C@@H](CCC(=O)O)C(=O)N[C@H](C(=O)N[C@@H](Cc1ccc(O)cc1)C(N)=O)[C@@H](C)O)C(C)C)[C@@H](C)O, also called compound 27) [N^ε1-[(4S)-4-carboxy-4-(19-carboxynonadecanoylamino)butanoyl]-[Arg17,Pro21,Pro27,Glu35]-h-amylin] | 0.837 | 22.6 | 133 | 3000
4 | K([γGlu-C20 diacid])CNTATCATQRLADFLRHSSPNFGAIPSSTNVGPETY-NH2 (disulfide 2-7; N-terminus assumed; SMILES CC[C@H](C)[C@H](NC(=O)[C@H](C)NC(=O)CNC(=O)[C@H](Cc1ccccc1)NC(=O)[C@H](CC(N)=O)NC(=O)[C@@H]1CCCN1C(=O)[C@H](CO)NC(=O)[C@H](CO)NC(=O)[C@H](Cc1c[nH]cn1)NC(=O)[C@H](CCCNC(=N)N)NC(=O)[C@H](CC(C)C)NC(=O)[C@H](Cc1ccccc1)NC(=O)[C@H](CC(=O)O)NC(=O)[C@H](C)NC(=O)[C@H](CC(C)C)NC(=O)[C@H](CCCNC(=N)N)NC(=O)[C@H](CCC(N)=O)NC(=O)[C@@H](NC(=O)[C@H](C)NC(=O)[C@@H]1CSSC[C@H](NC(=O)[C@@H](N)CCCCNC(=O)CC[C@H](NC(=O)CCCCCCCCCCCCCCCCCCC(=O)O)C(=O)O)C(=O)N[C@@H](CC(N)=O)C(=O)N[C@@H]([C@@H](C)O)C(=O)N[C@@H](C)C(=O)N[C@@H]([C@@H](C)O)C(=O)N1)[C@@H](C)O)C(=O)N1CCC[C@H]1C(=O)N[C@@H](CO)C(=O)N[C@@H](CO)C(=O)N[C@H](C(=O)N[C@@H](CC(N)=O)C(=O)N[C@H](C(=O)NCC(=O)N1CCC[C@H]1C(=O)N[C@@H](CCC(=O)O)C(=O)N[C@H](C(=O)N[C@@H](Cc1ccc(O)cc1)C(N)=O)[C@@H](C)O)C(C)C)[C@@H](C)O) | 0.196 | 3.9 | 288 | 1120
